# From paper PMC3169591
# Legend:
# [1] = target: Klebsiella pneumoniae PriB (full-length, 104-amino acid protein) (Klebsiella pneumoniae (strain MGH78578)); experiment: SEC; each protein applied alone at approximately 3.4 g/l to a HiPrep HR 16/10 sephacryl S-100 column, 0.35 ml/min, 10 mM Tris-HCl pH 8, 10% glycerol, 0.5 M NaCl, 1 mM beta-mercaptoethanol; column calibrated with protein standards of known molecular weight
# [2] = target: PriB (Klebsiella pneumoniae MGH78578, UniProt A6THB2 1-104); experiment: fluorescence anisotropy; apparent Kd; 1 mM Mg2+; 20 mM Tris-HCl pH 8, 50 mM NaCl, 4% glycerol, 1 mM MgCl2, 1 mM beta-mercaptoethanol, 0.1 mg/ml BSA, 1 nM DNA, 25 C; settings: protein: recombinant; tags: N-terminal His6 (pET28b); chain copies: 2; label: 3'-fluorescein; single strand
# Sequence of PriB (A6THB2 whole entry): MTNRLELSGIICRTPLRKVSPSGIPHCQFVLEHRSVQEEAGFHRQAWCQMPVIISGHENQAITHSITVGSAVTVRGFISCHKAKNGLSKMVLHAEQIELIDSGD
# Sequence of Klebsiella pneumoniae PriB (full-length, 104-amino acid protein) (natural protein) (A6THB2 whole entry): as above
Molecule,stoichiometry N [1],Kd [2] [nM]
"Klebsiella pneumoniae PriB (full-length, 104-amino acid protein) (natural protein)",2,
GCCGTGATCACCAATGCAGATTGACGAACCTTTGCTCCAGTAACC (ssDNA) [45-mer],,62 ± 14
GCGTGGGTAATTGTGCTTCAATGGACTGAC (ssDNA) [30-mer],,45 ± 7
TAGCAATGTAATCGT (ssDNA) [15-mer],,50 ± 3
